This is an account of results in patent US20080226632 (published 2008).

One experiment deals with EGF (human, UniProt P01133).
The target in another experiment is T1, HB-EGF (human, UniProt Q99075).
T1 chain: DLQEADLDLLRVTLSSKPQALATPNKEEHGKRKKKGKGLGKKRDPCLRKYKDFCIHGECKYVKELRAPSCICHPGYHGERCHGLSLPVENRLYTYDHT

Chain of EGF (P01133 971-1023): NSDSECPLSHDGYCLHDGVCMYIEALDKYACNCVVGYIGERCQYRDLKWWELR

B1: PAR34 (antibody, V domains shown)
VH: EIQLQQSGPELVKPGASVKVSCKASGYAFTNYNMYWVKQSHGKSLEWIGYIDPYYGDPGYSQKFKGKATLTVDKSSSTAYMHLNSLTSEDSAVYYCARRGNFPYYFDYWGQGTTLTVSS
VL: DIKMTQSPSSMYASLGERVTITCKASQDINSYLSWFQQKPGKSPKTLIYRANRLVDGVPSRFSGSGSGQDYSLTISSLEYEDMGIYYCLQYDEFPYTFGGGTKLEIK
Regarding B1, the binding result with EGF and with HB-EGF was “no binding” throughout.

B2: PAR80 (antibody, V domains shown)
VH: EVQLQQSGAELVRSGASVKLSCTASGFNIKDYYIHWVKQRPEQGLEWIGCIDPENGDTEYAPNFQGRATMTADTSSNTAYLQLSSLTSEDTAVYYCYGGTITFAYWGQGTLVTVSA
VL: QAVVTQESALTTSPGETVTLTCRSSTGAVTTSNSANWVQEKPDHLFTGLIGGTINRVPGVPARFSGSLIGDKAALTITGAQTEDEAIYFCALWYSNHWVFGGGTKLTVLG
Turning to B2, the binding result with EGF and with HB-EGF was “no binding” in each case.
